Results published in patent publication US20230137139A1, “BIOSYNTHESIS OF CANNABINOIDS AND C[…]” (priority 2020, published 2023).

Experiments:
[1] = system: CBCA, THCA, and CBDA production; assay: In vivo TS activity assay, Example 2 protein engineering of A. niger CBCAS, cultures fed olivetolic acid; assay type: cell-based, S. cerevisiae; settings: for Mean CBCA / Mean CBDA / Mean THCA: secondary screen, olivetolic acid (Table 8); for % CBCA / % CBDA / % THCA: share of terminal cannabinoid product profile
Outline: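 S. cerevisiae expressing A. niger CBCAS mutants (MFalpha2/HDEL-tagged) grown 2 days at 30 °C in YEP+4% dextrose, then 4 days at 20 °C in YEP+4% galactose with 1 mM olivetolic acid, spiked every 24 h with 2% galactose and 1 mM olivetolic acid. 100 mM citrate pH 5.5 added, methanol-extracted; CBCA, THCA, CBDA quantified by LC-MS.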

[2] = system: CBCVA, THCVA, and CBDVA production; assay: In vivo TS activity assay, Example 2 protein engineering of A. niger CBCAS, cultures fed divaric acid; assay type: cell-based, S. cerevisiae; settings: fed divaric acid; for Mean CBCVA / Mean CBDVA / Mean THCVA: S. cerevisiae strains expressing A. niger CBCAS mutants, secondary screen; for % CBCVA / % CBDVA / % THCVA: share of terminal cannabinoid product profile
Outline: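 S. cerevisiae expressing A. niger CBCAS point mutants (N-terminal MFalpha2, C-terminal HDEL signal peptides) grown 2 days at 30 °C in YEP+4% dextrose, then 4 days at 20 °C in YEP+4% galactose with 1 mM divaric acid plus daily 2% galactose and 1 mM divaric acid spikes, then 2 days with 100 mM sodium citrate pH 5.5. Methanol extracts analysed by LC-MS; quadruplicate.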

Molecule	Mean CBCA [1]	Mean CBDA [1]	Mean THCA [1]	% CBCA [1]	% CBDA [1]	% THCA [1]	Mean CBCVA [2]	Mean CBDVA [2]	Mean THCVA [2]	% CBCVA [2]	% CBDVA [2]	% THCVA [2]
t865814 (protein, expressed in S. cerevisiae strain) MGNTTSIAGRDCLISALGGNSALAVFPNELLWTADVHEYNLNLPVTPAAITYPETAAQIAGVVKCASDYDYKVQARSGGHSFGNYGLGGADGAVVVDMKHFTQFSMDDETYEAVIGPGTTLNDVDIELYNNGKRAMAHGVCPTIKTGGHFTIGGLGPTARQWGLALDHVEEVEVVLANSSIVRASNTQNQDVFFAVKGAAANFGIVTEFKVRTEPAPGLAVQYSYTFNLGSTAEKAQFVKDWQSFISAKNLTRQFYNNMVIFDGDIILEGLFFGSKEQYNALGLEDHFAPKNPGNILVLTDWLGMVGHALEDTILKLVGNTPTWFYAKSLGFRQDTLIPSAGIDEFFEYIANHTAGTPAWFVTLSLEGGAINDVAEDATAYAHRDVLFWVQLFMVNPVGPISDTTYEFTDGLYDVLARAVPESVGHAYLGCPDPRMEDAQQKYWRTNLPRLQELKEELDPKNTFHHPQGVMPA	20192.93 µg/L	6751.44 µg/L	1367.48 µg/L	71.32%	23.85%	4.83%	3290.24 µg/L	0.00 µg/L	1468.01 µg/L	69.15%	0.00%	30.85%
t865727 (protein) MGNTTSIAGRDCLISALGGNSALAVFPNELLWTADVHEYNLNLPVTPAAITYPETAAQIAGVVKCASDYDYKVQARSGGHSFGNYGLGGADGAVVVDMKHFTQFSMDDETYEAVIGPGTTLNDVDIELYNNGKRAMAHGVCPTIKTGGHFTIGGLGPTARQWGLALDHVEEVEVVLANSSIVRASNTQNQDVFFAVKGAAANFGIVTEFKVRTEPAPGLAVQYSYTFNLGSTAEKAQFVKDWQSFISAKNLTRQFYNNMVIFDGDIILEGLFFGSKEQYDALGLEDHFAPKNPGNILVLTDWLGMVGHALEDTILKLVGNTPTWFYAKSLGFRQDTLIPSAGIDEFFEYIANATAGTPAWFVTLSLEGGAINDVAEDATAYAHRDVLFWVQLFMVNPVGPISDTTYEFTDGLYDVLARAVPESVGHAYLGCPDPRMEDAQQKYWRTNLPRLQELKEELDPKNTFHHPQGVMPA	16276.39 µg/L	4297.38 µg/L	1177.87 µg/L	74.83%	19.76%	5.42%	1829.32 µg/L	0.00 µg/L	981.31 µg/L	65.09%	0.00%	34.91%
t865740 (protein) MGNTTSIAGRDCLISALGGNSALAVFPNELLWTADVHEYNLNLPVTPAAITYPETAAQIAGVVKCASDYDYKVQARSGGHSFGNYGLGGADGAVVVDMKHFTQFSMDDETYEAVIGPGTTLEDVDIELYNNGKRAMAHGVCPTIKTGGHFTIGGLGPTARQWGLALDHVEEVEVVLANSSIVRASNTQNQDVFFAVKGAAANFGIVTEFKVRTEPAPGLAVQYSYTFNLGSTAEKAQFVKDWQSFISAKNLTRQFYNNMVIFDGDIILEGLFFGSKEQYDALGLEDHFAPKNPGNILVLTDWLGMVGHALEDTILKLVGNTPTWFYAKSLGFRQDTLIPSAGIDEFFEYIANHTAGTPAWFVTLSLEGGAINDVAEDATAYAHRDVLFWVQLFMVNPVGPISDTTYEFTDGLYDVLARAVPESVGHAYLGCPDPRMEDAQQKYWRTNLPRLQELKEELDPKNTFHHPQGVMPA	11837.41 µg/L	3671.56 µg/L	685.53 µg/L	73.10%	22.67%	4.23%	1153.83 µg/L	0.00 µg/L	469.98 µg/L	71.06%	0.00%	28.94%
t865772 (protein, expressed in S. cerevisiae strain) MGNTTSIAGRDCLISALGGNSALAVFPNELLWTAAVHEYNLNLPVTPAAITYPETAAQIAGVVKCASDYDYKVQARSGGHSFGNYGLGGADGAVVVDMKHFTQFSMDDETYEAVIGPGTTLNDVDIELYNNGKRAMAHGVCPTIKTGGHFTIGGLGPTARQWGLALDHVEEVEVVLANSSIVRASNTQNQDVFFAVKGAAANFGIVTEFKVRTEPAPGLAVQYSYTFNLGSTAEKAQFVKDWQSFISAKNLTRQFYNNMVIFDGDIILEGLFFGSKEQYDALGLEDHFAPKNPGNILVLTDWLGMVGHALEDTILKLVGNTPTWFYAKSLGFRQDTLIPSAGIDEFFEYIANHTAGTPAWFVTLSLEGGAINDVAEDATAYAHRDVLFWVQLFMVNPVGPISDTTYEFTDGLYDVLARAVPESVGHAYLGCPDPRMEDAQQKYWRTNLPRLQELKEELDPKNTFHHPQGVMPA	9992.22 µg/L	3051.02 µg/L	622.72 µg/L	73.12%	22.33%	4.56%	1441.55 µg/L	0.00 µg/L	702.24 µg/L	67.24%	0.00%	32.76%
t865796 (protein, expressed in S. cerevisiae strain) MGNTTSIAGRDCLISALGGNSALAVFPNELLWTADVHEYNLNLPVTPAAITYPETAAQIAGVVKCASDYDYKVQARSGGHSFGNYGLGGADGAVVVDMKHFTQFSMDDETYEAVIGPGTTLNDVDIELYNNGKRAMAHGVCPTIKTGGHFTIGGLGPTARQWGLALDHVEEVEVVLANSSIVRASNTQNQDVFFAVKGAAANFGIVTEFKVRTEPAPGLAVQYSYTFNLGSTAEKAQFVKDWQSFISAKNLTRQFYNNMVIFDGDIILEGLFFGSKEQYDALGLEDHFAPKNPGNILVLTDWLGMVGHALEDTILKLVGNTPTWFYAKSLGFRQDTLIPSAGIDEFFEYIANHTAGTPAWFVTLSLEGGAINDVAEDATAYAHRDVLFWVQLFMVNPVGPISDTTYEFTDGLYDVLARAVPESVGHAYLGCPDPRMEDAQQKYWRTNLPRLQELKEEWDPKNTFHHPQGVMPA	19975.57 µg/L	6427.56 µg/L	1436.09 µg/L	71.75%	23.09%	5.16%	2570.89 µg/L	0.00 µg/L	1344.71 µg/L	65.66%	0.00%	34.34%
t865731 (protein) MGNTTSIAGRDCLISALGGNSALAAFPNELLWTADVHEYNLNLPVTPAAITYPETAAQIAGVVKCASDYDYKVQARSGGHSFGNYGLGGADGAVVVDMKHFTQFSMDDETYEAVIGPGTTLNDVDIELYNNGKRAMAHGVCPTIKTGGHFTIGGLGPTARQWGLALDHVEEVEVVLANSSIVRASNTQNQDVFFAVKGAAANFGIVTEFKVRTEPAPGLAVQYSYTFNLGSTAEKAQFVKDWQSFISAKNLTRQFYNNMVIFDGDIILEGLFFGSKEQYDALGLEDHFAPKNPGNILVLTDWLGMVGHALEDTILKLVGNTPTWFYAKSLGFRQDTLIPSAGIDEFFEYIANHTAGTPAWFVTLSLEGGAINDVAEDATAYAHRDVLFWVQLFMVNPVGPISDTTYEFTDGLYDVLARAVPESVGHAYLGCPDPRMEDAQQKYWRTNLPRLQELKEELDPKNTFHHPQGVMPA	16059.53 µg/L	4006.74 µg/L	971.80 µg/L	76.34%	19.05%	4.62%	1605.94 µg/L	0.00 µg/L	885.33 µg/L	64.46%	0.00%	35.54%
t865733 (protein) MGNTTSIAGRDCLISALGGNSALAVFPNELLWTADVHEYNLNLPVTPAAITYPETAAQIAGVVKCASDYDYKVQARSGGHSFGNYGLGGADGAVVVDMKHFTQFSMDDETYEAVIGPGTTLNDVDIELYNNGKRAMAHGVCPTIKTGGHFTIGGLGPTARQWGLALDHVEEVEVVLANSSIVRASNTQNQDVFFAVKGAAANFGIVTEFKVRTEPAPGLAVQYSYTFNLGSTAEKAQFVKDWQSFISAKNLTRQFYNNMVIFDGDIILEGLFFGSKEQYDALGLEDHFAPKNPGNILVLTDWLGMVGHALEDTILKLVGNTPTWFYAKSLGFRQDTLIPSAGIDEFFEYIANHTAGTPAWFVTLSLEGGAINDVAEDATAYAHRDVLFWVQLFMVNPTGPISDTTYEFTDGLYDVLARAVPESVGHAYLGCPDPRMEDAQQKYWRTNLPRLQELKEELDPKNTFHHPQGVMPA	18070.99 µg/L	6320.33 µg/L	1307.71 µg/L	70.32%	24.59%	5.09%	2023.09 µg/L	0.00 µg/L	1202.96 µg/L	62.71%	0.00%	37.29%
